Laboratory results from US20220233607A1 (UNIVERSIT DE TOURS, published 2022).

B1: scFv anti-DEC205 fused to SAG1 (DC2 SAG1) protein, membrane anchored SAG1 ScFv DEC 205 including a HA tag, on the surface of T. gondii RH-DC2-SAG1 tachyzoites (scFv)
scFv: YPYDVPDYAQVQLQESGGGLVQPGGSLRLSCAASGFTFNDFYMNWIRQPPGQAPEWLGVIRNKGNGYTTEVNTSVKGRFTISRDNTQNILYLQMNSLRAEDTAIYYCARGGPYYYSGDDAPYWGQGVMVTVSSGGGGSGGGGSGGGGSDIQMTQSPSSLSASVGDRVTITCRASQNIKGWLAWYQQKSGNAPQLLIYKASSLQSGVPSRFSGSGSGTDYIFTISNLQPEDIATYYCQHYQSFPWTFGGGTKLELKGGGASPLVANQVVTCPDKKSTAAVILTPTENHFTLKCPKTALTEPPTLAYSPNRQICPAGTTSSCTSKAVTLSSLIPEAEDSWWTGDSASLDTAGIKLTVPIEKFPVTTQTFVVGCIKGDDAQSCMVTVTVQARASSVVNNVARCSYGADSTLGPVKLSAEGPTTMTLVCGKDGVKVPQDNNQYCSGTTLTGCNEKSFKDILPKLTENPWQGNASSDKGATLTIKKEAFPAESKSVIIGCTGGSPEKHHCTVKLEFA
notes: also called RH-DEC205
B2: scFv anti-DEC205 (DC2) protein, membrane anchored ScFv DEC 205 including a HA tag, on the surface of T. gondii RH-DC2 tachyzoites (scFv)
scFv: YPYDVPDYAQVQLQESGGGLVQPGGSLRLSCAASGFTFNDFYMNWIRQPPGQAPEWLGVIRNKGNGYTTEVNTSVKGRFTISRDNTQNILYLQMNSLRAEDTAIYYCARGGPYYYSGDDAPYWGQGVMVTVSSGGGGSGGGGSGGGGSDIQMTQSPSSLSASVGDRVTITCRASQNIKGWLAWYQQKSGNAPQLLIYKASSLQSGVPSRFSGSGSGTDYIFTISNLQPEDIATYYCQHYQSFPWTFGGGTKLELKGGGAS
notes: also called SS SAG1-HA-ScFv-linker-GPI; RH-DEC205

Molecular target: T1, DEC205 on MutuDC 1950 cells (murine dendritic cell line, DEC205+) (murine, UniProt Q60767 28-1723)
T1 construct: whole, on cells; also called CD205; dendritic cells
Assay: flow cytometry, MutuDC 1950 cells with parasites at MOI 2 on ice, anti-gp23 mAb

Binder	multiplication factor of the percentage of T. gondii binding to mutuDC cells (against RH strain) [fold]
B1	≥ 2.5
B2	≥ 2.5
